The values below come from patent publication US20170305994A1.

Values joined by “and” are separate entries in the source; they are usually repeats but may differ in a detail not shown here. Equal values may be shown once. Read-outs that look alike come from different tables or passages of the source.

Assay [1] has as its target T1, human DR3 (full length, on cells) (human) (UniProt Q93038).
T1 sequence: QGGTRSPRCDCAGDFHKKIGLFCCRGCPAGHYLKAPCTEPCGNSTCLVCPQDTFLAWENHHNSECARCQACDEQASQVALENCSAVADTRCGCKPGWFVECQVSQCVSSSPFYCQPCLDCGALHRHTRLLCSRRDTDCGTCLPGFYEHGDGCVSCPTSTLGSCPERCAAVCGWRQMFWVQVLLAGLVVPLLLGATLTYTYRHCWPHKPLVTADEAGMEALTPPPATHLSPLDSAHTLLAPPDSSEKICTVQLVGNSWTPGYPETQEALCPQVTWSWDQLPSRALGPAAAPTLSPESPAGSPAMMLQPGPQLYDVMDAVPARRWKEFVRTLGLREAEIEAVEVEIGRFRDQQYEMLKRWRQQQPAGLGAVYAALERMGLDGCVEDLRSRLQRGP
Nature of the assay: flow cytometry on CD3/CD28-stimulated human CD4+ T cells (isotype control). For orientation: In flow cytometry, cells or beads pass a laser one at a time.

For assay [2], the target named is TL1A (R&D Systems) (UniProt O95150). Put plainly: cell-based or functional assay.
Sequence of TL1A (R&D Systems) (O95150 72-251 limits assumed): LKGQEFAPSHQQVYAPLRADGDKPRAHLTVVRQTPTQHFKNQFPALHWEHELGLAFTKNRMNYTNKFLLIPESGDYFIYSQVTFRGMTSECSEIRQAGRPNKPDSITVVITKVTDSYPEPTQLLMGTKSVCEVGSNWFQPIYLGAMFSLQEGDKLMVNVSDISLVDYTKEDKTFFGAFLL
Assay [3] shares this target. Put plainly: cell-based or functional assay. This is another data set of the same source.
Assay [4] has as its target T1, human DR3 (full length, on cells) (human). Put plainly: cell-based or functional assay.
The target of assay [5] is human DR3 with the death domain deleted (ΔM339-P417 of SEQ ID NO:1), expressed on CHOK1SV cells (human) (UniProt Q93038). Put plainly: flow cytometry competition: Fab vs TL1A on hDR3-expressing CHO cells (isotype control; IC50 cell: No inhib).

Regarding IgG1 isotype (antibody), in assay [1], the Median Fluorescent Intensity came out at 222 and the Staining index (MFI Ab/MFI Isotype) was determined as 1.
In the case of “MAB7441 (R&D Systems), TL1A specific antibody”, the fold response, DR3 reporter, TL1A + 2.5 microg/ml MAb7441 in the assay with TL1A (R&D Systems) [2] is 3.7 fold; in the assay with TL1A (R&D Systems) [3] it was 2.3 fold and 2 fold and 1.8 fold.
0158 (Hz-aTNP isotype control Fab): in assay [4], the max % inhibition of TNFalpha, average (n 8) is -1.8%; the max % inhibition of TNFalpha, donor 1 stood at 1.24%; the max % inhibition of TNFalpha, donor 2 was 0.75%. In assay [5], this substance displayed a max percentage inhibition of 10%.
